Experimental data published in patent US20230322958A1 (Genentech, published 2023).

Key:
[1] = target: human Notch2 on U-87 MG cells (human, UniProt Q04721 26-2471); test: cell-based or functional assay
huNotch2-EGF6-10 = target: T1, huNotch2-EGF6-10 (human, UniProt Q04721 219-418); test: SPR BIAcore T200, antibody captured on protein A, 37 C
T1 construct: also called human Notch2 EGF6-10
T1 sequence: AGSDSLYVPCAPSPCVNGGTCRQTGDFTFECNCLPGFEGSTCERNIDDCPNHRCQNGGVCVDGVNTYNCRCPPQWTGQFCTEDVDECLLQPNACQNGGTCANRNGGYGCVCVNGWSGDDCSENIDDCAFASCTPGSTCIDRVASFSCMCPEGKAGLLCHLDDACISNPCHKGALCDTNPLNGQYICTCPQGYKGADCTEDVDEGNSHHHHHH

huNotch1 = target: T2, huNotch1 (human); test: SPR
T2 construct: The entry named huNotch1 is a tagged EGF-repeat fragment; also called human Notch1
T2 chain: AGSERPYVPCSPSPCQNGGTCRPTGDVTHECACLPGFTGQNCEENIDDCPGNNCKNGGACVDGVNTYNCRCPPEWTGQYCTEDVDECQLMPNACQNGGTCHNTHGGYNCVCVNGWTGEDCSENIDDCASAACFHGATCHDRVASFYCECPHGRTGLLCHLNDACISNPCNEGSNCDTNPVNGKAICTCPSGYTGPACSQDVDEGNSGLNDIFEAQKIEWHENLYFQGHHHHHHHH

huNotch3 = target: T3, huNotch3 (human); test: SPR
T3 construct: The entry named huNotch3 is a tagged EGF-repeat fragment; also called human Notch3
T3 chain: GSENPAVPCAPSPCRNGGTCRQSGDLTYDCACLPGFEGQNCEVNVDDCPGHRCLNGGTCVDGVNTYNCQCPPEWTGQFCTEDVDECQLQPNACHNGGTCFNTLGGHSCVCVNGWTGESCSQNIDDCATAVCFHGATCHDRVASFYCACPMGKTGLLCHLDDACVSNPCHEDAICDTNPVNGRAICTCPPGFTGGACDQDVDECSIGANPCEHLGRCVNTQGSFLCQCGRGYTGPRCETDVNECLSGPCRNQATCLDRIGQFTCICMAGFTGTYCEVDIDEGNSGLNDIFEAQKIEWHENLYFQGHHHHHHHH

human Notch2 on U-87 MG cells, sequence (Q04721 26-2471): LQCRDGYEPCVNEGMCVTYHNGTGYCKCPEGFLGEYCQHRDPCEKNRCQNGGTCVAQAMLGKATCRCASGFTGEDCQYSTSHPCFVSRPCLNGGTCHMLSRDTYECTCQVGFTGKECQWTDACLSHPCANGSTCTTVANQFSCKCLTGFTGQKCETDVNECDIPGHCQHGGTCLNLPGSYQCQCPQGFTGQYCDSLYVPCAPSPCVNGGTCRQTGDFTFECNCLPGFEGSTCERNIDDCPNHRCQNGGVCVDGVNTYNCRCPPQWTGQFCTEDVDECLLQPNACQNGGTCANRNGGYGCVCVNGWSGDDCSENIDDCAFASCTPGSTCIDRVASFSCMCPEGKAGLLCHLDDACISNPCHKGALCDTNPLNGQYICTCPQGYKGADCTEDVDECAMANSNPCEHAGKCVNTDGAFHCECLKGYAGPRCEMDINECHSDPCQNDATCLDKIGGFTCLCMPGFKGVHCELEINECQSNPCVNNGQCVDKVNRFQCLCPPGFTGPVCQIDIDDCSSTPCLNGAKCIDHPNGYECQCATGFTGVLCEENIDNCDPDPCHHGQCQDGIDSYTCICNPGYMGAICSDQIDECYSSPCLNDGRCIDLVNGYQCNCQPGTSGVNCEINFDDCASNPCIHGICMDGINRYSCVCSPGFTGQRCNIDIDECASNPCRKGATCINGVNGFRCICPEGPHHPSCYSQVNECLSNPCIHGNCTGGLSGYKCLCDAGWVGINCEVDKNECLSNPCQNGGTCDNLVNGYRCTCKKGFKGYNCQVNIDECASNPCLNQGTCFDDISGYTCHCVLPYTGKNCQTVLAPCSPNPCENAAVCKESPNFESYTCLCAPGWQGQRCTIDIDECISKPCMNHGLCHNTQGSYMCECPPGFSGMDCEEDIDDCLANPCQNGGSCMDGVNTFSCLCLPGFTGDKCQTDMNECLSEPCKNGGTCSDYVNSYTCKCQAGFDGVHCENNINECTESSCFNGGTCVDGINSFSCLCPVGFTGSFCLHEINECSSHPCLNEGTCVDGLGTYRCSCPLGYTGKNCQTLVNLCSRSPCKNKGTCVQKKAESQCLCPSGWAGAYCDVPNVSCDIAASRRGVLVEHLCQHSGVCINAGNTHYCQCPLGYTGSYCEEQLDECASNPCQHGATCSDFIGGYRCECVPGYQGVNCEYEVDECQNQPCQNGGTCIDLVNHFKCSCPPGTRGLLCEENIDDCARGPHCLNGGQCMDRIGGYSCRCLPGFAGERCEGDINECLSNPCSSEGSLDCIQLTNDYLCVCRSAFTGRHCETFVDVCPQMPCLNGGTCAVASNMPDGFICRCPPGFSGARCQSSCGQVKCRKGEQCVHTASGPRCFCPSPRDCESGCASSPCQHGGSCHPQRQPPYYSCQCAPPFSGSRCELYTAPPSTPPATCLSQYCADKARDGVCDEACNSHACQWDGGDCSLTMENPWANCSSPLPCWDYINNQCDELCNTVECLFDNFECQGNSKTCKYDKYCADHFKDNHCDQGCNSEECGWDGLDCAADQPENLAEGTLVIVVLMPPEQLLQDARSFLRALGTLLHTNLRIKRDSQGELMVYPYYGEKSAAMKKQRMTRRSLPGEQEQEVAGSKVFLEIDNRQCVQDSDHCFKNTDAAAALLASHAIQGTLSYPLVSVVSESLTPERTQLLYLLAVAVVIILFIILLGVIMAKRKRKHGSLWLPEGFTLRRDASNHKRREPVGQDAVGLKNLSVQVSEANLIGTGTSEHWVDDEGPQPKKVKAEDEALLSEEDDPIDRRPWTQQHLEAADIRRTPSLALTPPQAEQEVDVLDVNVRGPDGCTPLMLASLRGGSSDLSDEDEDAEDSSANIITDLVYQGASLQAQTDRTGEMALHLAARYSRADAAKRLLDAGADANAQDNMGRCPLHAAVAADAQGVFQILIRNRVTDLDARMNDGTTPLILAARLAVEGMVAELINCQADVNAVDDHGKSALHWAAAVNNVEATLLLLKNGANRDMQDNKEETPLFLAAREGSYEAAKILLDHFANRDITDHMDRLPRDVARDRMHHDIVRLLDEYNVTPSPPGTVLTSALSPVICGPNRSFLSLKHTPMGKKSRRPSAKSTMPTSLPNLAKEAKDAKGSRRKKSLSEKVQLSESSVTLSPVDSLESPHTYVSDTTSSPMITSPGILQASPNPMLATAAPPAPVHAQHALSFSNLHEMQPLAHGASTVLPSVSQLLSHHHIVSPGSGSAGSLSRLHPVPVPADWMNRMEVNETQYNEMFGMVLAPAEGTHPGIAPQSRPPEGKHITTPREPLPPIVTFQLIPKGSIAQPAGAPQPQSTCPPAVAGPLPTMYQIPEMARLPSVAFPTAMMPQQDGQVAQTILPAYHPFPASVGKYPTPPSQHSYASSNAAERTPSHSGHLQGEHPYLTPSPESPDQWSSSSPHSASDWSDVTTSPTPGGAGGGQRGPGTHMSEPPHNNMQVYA

Jagged1 IC50 [1]: 1.8 nM
Kd (huNotch2-EGF6-10): 3.08 nM
koff (huNotch2-EGF6-10): 0.000817 s⁻¹
kon (huNotch2-EGF6-10): 265000 M⁻¹ s⁻¹
binding result (huNotch1): no binding
binding result (huNotch3): no binding
B1: hu1B2.v103 (antibody, V domains shown)
VH: EVQLVESGGGLVQPGGSLKLSCAVSGFTFSDFYMEWVRQASGKGLEWVAAQRNKANDFSIVYSASVKDRFTISRDDSKSTLYLQMNSLKTEDTAVYYCSRDGGKWGLDAWGQGTLVTVSS
VL: DIQMTQSPSSVSASVGDRVTITCQTSEDIYSGLAWYQQKPGKSPKLLIYGASRLQDGVPSRFSGSGSGTDYTLTISSLQPEDFATYYCQQGFKYPLTFGGGTKVEIK
notes: Human IgG1 backbone
